Each block holds one binder with its values, some of them ahead of it.
Columns and labels:
Assay in all cases: cryo-EM structure
[1] = target: T1, PRIM2 (human, UniProt P49643-1 1-509)
T1 sequence (looked up): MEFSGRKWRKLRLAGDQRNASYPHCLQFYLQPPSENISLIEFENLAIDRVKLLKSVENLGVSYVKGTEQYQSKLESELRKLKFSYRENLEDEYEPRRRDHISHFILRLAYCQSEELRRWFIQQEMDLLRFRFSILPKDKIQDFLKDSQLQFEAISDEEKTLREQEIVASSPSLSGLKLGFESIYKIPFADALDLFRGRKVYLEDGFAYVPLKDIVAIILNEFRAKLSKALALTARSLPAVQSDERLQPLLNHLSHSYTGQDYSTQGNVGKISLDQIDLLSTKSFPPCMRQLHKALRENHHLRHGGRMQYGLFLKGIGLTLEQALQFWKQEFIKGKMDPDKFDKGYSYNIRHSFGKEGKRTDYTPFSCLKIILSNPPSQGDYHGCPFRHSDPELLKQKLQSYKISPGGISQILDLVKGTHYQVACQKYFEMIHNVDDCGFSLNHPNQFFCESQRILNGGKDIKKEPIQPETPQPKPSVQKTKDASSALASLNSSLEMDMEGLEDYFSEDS

[2] = target: T2, STN1 (human, UniProt Q9H668 2-368)
T2 sequence: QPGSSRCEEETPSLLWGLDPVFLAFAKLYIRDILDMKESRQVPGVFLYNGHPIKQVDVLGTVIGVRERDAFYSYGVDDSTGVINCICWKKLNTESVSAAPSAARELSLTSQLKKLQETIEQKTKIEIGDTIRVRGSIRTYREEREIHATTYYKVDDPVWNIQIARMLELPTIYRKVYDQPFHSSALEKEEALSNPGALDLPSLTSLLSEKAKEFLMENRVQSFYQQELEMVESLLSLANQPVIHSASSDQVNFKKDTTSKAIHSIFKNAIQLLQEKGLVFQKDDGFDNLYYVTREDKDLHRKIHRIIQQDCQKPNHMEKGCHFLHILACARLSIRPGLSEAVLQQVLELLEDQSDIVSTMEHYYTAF

[3] = target: T3, POLA2 (human, UniProt Q14181-1 1-598)
T3 sequence (looked up): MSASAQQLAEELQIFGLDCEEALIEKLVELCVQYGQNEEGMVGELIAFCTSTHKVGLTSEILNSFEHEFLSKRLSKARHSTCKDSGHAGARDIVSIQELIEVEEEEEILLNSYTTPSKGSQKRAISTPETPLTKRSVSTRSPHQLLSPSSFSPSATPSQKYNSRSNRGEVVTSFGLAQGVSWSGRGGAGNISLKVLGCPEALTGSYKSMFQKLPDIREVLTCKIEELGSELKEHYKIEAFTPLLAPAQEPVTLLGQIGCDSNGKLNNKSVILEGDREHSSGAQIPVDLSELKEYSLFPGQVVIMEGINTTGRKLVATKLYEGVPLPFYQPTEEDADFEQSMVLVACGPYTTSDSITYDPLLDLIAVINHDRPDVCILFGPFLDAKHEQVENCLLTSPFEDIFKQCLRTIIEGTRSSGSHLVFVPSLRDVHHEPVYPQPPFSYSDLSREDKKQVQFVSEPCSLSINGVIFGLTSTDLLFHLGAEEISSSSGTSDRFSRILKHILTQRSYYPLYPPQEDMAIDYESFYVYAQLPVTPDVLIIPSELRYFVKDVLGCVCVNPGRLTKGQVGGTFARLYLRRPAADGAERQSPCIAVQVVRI

[4] = target: T4, PRIM1 (human, UniProt P49642 2-420)
T4 sequence: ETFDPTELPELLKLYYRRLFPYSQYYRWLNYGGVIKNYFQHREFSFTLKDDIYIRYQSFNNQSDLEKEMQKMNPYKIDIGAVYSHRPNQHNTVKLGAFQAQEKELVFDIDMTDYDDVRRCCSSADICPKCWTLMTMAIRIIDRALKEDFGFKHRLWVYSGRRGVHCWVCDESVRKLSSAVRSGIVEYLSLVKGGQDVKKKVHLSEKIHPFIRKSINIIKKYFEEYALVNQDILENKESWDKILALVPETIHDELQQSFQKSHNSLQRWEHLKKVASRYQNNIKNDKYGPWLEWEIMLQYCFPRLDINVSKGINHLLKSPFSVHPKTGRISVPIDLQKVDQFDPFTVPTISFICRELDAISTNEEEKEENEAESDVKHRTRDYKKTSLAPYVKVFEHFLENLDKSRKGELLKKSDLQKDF

[5] = target: DNA polymerase-α–primase (Polα–primase) complex, PRIM1–PRIM2–POLA1–POLA2, full-length (human, UniProt P09884 1-1462; Q14181-1 1-598; P49642 2-420; P49643-1 1-509)

- binding result [1]: binds
- binding result [2]: binds
- binding result [3]: binds
- binding result [4]: binds
B1: TEN1 (natural protein, human)
chain: LPKPGTYYLPWEVSAGQVPDGSTLRTFGRLCLYDMIQSRVTLMAQHGSDQHQVLVCTKLVEPFHAQVGSLYIVLGELQHQQDRGSVVKARVLTCVEGMNLPLLEQAIREQRLYKQERGGSQ

- stoichiometry N [5]: 1
B2: CTC1–STN1–TEN1 (CST) complex (complex, human)
chain 1: MAAGRAQVPSSEQAWLEDAQVFIQKTLCPAVKEPNVQLTPLVIDCVKTVWLSQGRNQGSTLPLSYSFVSVQDLKTHQRLPCCSHLSWSSSAYQAWAQEAGPNGNPLPREQLLLLGTLTDLSADLEQECRNGSLYVRDNTGVLSCELIDLDLSWLGHLFLFPRWSYLPPARWNSSGEGHLELWDAPVPVFPLTISPGPVTPIPVLYPESASCLLRLRNKLRGVQRNLAGSLVRLSALVKSKQKAYFILSLGRSHPAVTHVSIIVQVPAQLVWHRALRPGTAYVLTELRVSKIRGQRQHVWMTSQSSRLLLLKPECVQELELELEGPLLEADPKPLPMPSNSEDKKDPESLVRYSRLLSYSGAVTGVLNEPAGLYELDGQLGLCLAYQQFRGLRRVMRPGVCLQLQDVHLLQSVGGGTRRPVLAPCLRGAVLLQSFSRQKPGAHSSRQAYGASLYEQLVWERQLGLPLYLWATKALEELACKLCPHVLRHHQFLQHSSPGSPSLGLQLLAPTLDLLAPPGSPVRNAHNEILEEPHHCPLQKYTRLQTPSSFPTLATLKEEGQRKAWASFDPKALLPLPEASYLPSCQLNRRLAWSWLCLLPSAFCPAQVLLGVLVASSHKGCLQLRDQSGSLPCLLLAKHSQPLSDPRLIGCLVRAERFQLIVERDVRSSFPSWKELSMPGFIQKQQARVYVQFFLADALILPVPRPCLHSATPSTPQTDPTGPEGPHLGQSRLFLLCHKEALMKRNFCVPPGASPEVPKPALSFYVLGSWLGGTQRKEGTGWGLPEPQGNDDNDQKVHLIFFGSSVRWFEFLHPGQVYRLIAPGPATPMLFEKDGSSCISRRPLELAGCASCLTVQDNWTLELESSQDIQDVLDANKSLPESSLTDLLSDNFTDSLVSFSAEILSRTLCEPLVASLWMKLGNTGAMRRCVKLTVALETAECEFPPHLDVYIEDPHLPPSLGLLPGARVHFSQLEKRVSRSHNVYCCFRSSTYVQVLSFPPETTISIPLPHIYLAELLQGGQSPFQATASCHIVSVFSLQLFWVCAYCTSICRQGKCTRLGSTCPTQTAISQAIIRLLVEDGTAEAVVTCRNHHVAAALGLCPREWASLLDFVQVPGRVVLQFAGPGAQLESSARVDEPMTMFLWTLCTSPSVLRPIVLSFELERKPSKIVPLEPPRLQRFQCGELPFLTHVNPRLRLSCLSIRESEYSSSLGILASSC
chain 2: T2 sequence
chain 3: B1 chain
